Biological target: LDLR (LDL receptor) of HepG2 cells (UniProt P01130)
Assay: cell-based or functional assay

Substance: PCSK9c polypeptide (novel PCSK9 variant) (from UniProt Q8NBP7 175-692) (enzyme)
- LDL uptake assay (DiI-LDL, HepG2 cells) (% more function than wildtype PCSK9): 50
